Laboratory results reported in publication PMC4720616, “Influence of tumour size on the efficacy of targeted alpha therapy with ^213Bi-[DOTA^0,Tyr^3]-octreotate” (EJNMMI Research, 2016).

What was measured:
[1] = in the absence of L-lysine; ref manuscript in preparation; cited from earlier work
From the text: In patients, the maximum tolerated dose in kidney is postulated to b ...

kidney = conditions: mouse, in vivo
in vivo = experiment: in vivo; design: species or system BALB/c (nu/nu) nude mice; conditions: BALB/c (nu/nu) nude, mouse, iv, total radioactivity
Method: (§1) When tumour volumes reached ~120 mm^3, animals were divided into five groups with seven animals in each group for both H69 and CA20948 tumour-bearing animals. […] At 10, 30, 60 and 120 min post injection (p.i.), animals in the four groups were euthanized and tissues and organs of interest (including tumour, kidney, pancreas, spleen, liver, muscle, blood, femur, femur marrow and adrenals) were collected and counted using a gamma counter (Wallac Wizard 3, PerkinElmer, USA). […] The animals of the control group were euthanized 60 min p.i.; tissues and organs of interest were harvested and counted using a gamma counter. Data was expressed in mean percentage of total injected radioactivity per gram tissue (%IA/g) ± SD.

[2] = system: CA20948 tumour-bearing mice; experiment: in vivo; design: species or system BALB/c (nu/nu) nude mice; conditions: mouse, iv
Method: as §1

H69 tumour-bearing mice = experiment: in vivo; design: species or system BALB/c (nu/nu) nude mice; conditions: mouse, iv
Method: as §1

[3] = system: H69 (human small cell lung carcinoma) tumours; experiment: Targeted alpha therapy: tumour growth and survival, H69 tumours; format: in vivo, human tumour cells in BALB/c (nu/nu) nude mice; conditions: for Mean time to reach a tumour volume of 2000 mm^3: i.v. 2–4 MBq/0.3 nmol ^213Bi-DOTATATE or 0.3 nmol unlabelled DOTATATE (control) on three consecutive days, mean ± SD; for Median survival: follow-up 90 days after treatment
Method: (§2) All animal studies were in agreement with the Animal Welfare Committee requirements of Erasmus MC and conducted in accordance with accepted guidelines. Male 6–8-week-old BALB/c (nu/nu) nude mice were obtained from Charles River (Kißlegg, Germany). Subcutaneous tumours were established in mice by inoculation of approximately 5 × 10^6 cells (CA20948 or H69), suspended in 200 μL sterile culture medium Hanks’ balanced salt solution (HBSS) in the case of CA20948 cells. Three days after inoculation of CA20948 cells, a tumour with a tumour size ~50 mm^3 (used for the “smaller” tumour-size group) was reached, and 2 weeks after inoculation, a tumour size ~200 mm^3 (used for the “larger” tumour-size group) was reached. For H69 cells, 200 μL, containing 1/3 Matrigel and 2/3 HBSS medium (Gibco, Life Technologies), was used. The cells were injected subcutaneously (s.c.) into the right flank of the mice. One week after inoculation of tumour cells, tumours with a volume of ~50 mm^3 (used for the smaller tumour-size group) could be detected, and after 3 weeks, tumour volumes reached ~200 mm^3 (used for the larger tumour-size group). Tumour volumes were estimated using a calliper.
(§3) Tumour cells were inoculated into the right flank of the mice, and the tumours were allowed to grow until tumour volumes of approximately 50 and 200 mm^3 were reached, respectively. […] The control group (H69-bearing animals: small tumour n = 10, large tumour n = 9; CA20948-bearing animals: small tumour n = 5, large tumour n = 5) received i.v. via the tail vein three times 0.3 nmol/200 μL of unlabelled DOTATATE for three consecutive days.
(§4) All animals were followed for 90 days after treatment. The behaviour and the health status of the animals were observed daily, and the weight of the animals and the tumour volumes were monitored twice a week.

[4] = system: CA20948 (rat pancreatic tumour) tumours; experiment: Targeted alpha therapy: tumour growth and survival, CA20948 tumours; format: in vivo, rat tumour cells in BALB/c (nu/nu) nude mice; conditions: for Mean time to reach a tumour volume of 2000 mm^3: i.v. 2–4 MBq/0.3 nmol ^213Bi-DOTATATE or 0.3 nmol unlabelled DOTATATE (control) on three consecutive days, mean ± SD; for Median survival: follow-up 90 days after treatment
Method: as §2, §3, §4

[5] = 3.8 MBq/0.3 nmol/200 uL, Uptake, Adrenal
[6] = 3.8 MBq/0.3 nmol/200 uL, Uptake, Blood
[7] = 3.8 MBq/0.3 nmol/200 uL, Uptake, Femur
[8] = 3.8 MBq/0.3 nmol/200 uL, Uptake, Kidney
[9] = 3.8 MBq/0.3 nmol/200 uL, Uptake, Liver
[10] = 3.8 MBq/0.3 nmol/200 uL, Uptake, Muscle
[11] = 3.8 MBq/0.3 nmol/200 uL, Uptake, Tumour
[12] = H69 small tumours, after treatment

SMILES: C[C@@H](O)[C@H](NC(=O)[C@@H]1CSSC[C@H](NC(=O)[C@@H](Cc2ccccc2)NC(=O)CN2CCN(CC(=O)O)CCN(CC(=O)O)CCN(CC(=O)O)CC2)C(=O)N[C@@H](Cc2ccc(O)cc2)C(=O)N[C@H](Cc2c[nH]c3ccccc23)C(=O)N[C@@H](CCCCN)C(=O)N[C@@H]([C@@H](C)O)C(=O)N1)C(=O)O [^213Bi-DOTATATE, ^213Bi-[DOTA^0, Tyr^3]-octreotate, metal not drawn]
- Maximum tolerated activity [1]: < 13.1 ± 1.2 MBq
- Kidney histology, control vs treated animals (kidney): no significant differences were observed
- tissue uptake at 10 min (in vivo; 2.1 MBq/0.3 nmol/200 uL, Uptake, Kidney): 51.5 ± 16.6 %ID/g
- tissue uptake at 2 h (in vivo; 2.1 MBq/0.3 nmol/200 uL, Uptakes in other organs (other than tumour and kidney)): < 2 %ID/g
- tissue uptake at 2 h (in vivo; 3.8 MBq/0.3 nmol/200 uL, Uptake in all other organs (other than tumour and kidney)): < 2 %ID/g
- tissue uptake at 0.5 h (in vivo; [5]): 2 ± 0.6 %ID/g
- tissue uptake at 1 h (in vivo; [5]): 0.9 ± 0.4 %ID/g
- tissue uptake at 2 h (in vivo; [5]): 0.7 ± 0.4 %ID/g
- tissue uptake at 10 min (in vivo; [6]): 8.1 ± 1.8 %ID/g
- tissue uptake at 0.5 h (in vivo; [6]): 2.3 ± 1.1 %ID/g
- tissue uptake at 1 h (in vivo; [6]): 0.6 ± 0.2 %ID/g
- tissue uptake at 2 h (in vivo; [6]): 0.1 ± 0.06 %ID/g
- tissue uptake at 0.5 h (in vivo; [7]): 1.5 ± 0.4 %ID/g
- tissue uptake at 1 h (in vivo; [7]): 1 ± 0.5 %ID/g
- tissue uptake at 2 h (in vivo; [7]): 0.4 ± 0.4 %ID/g
- tissue uptake at 10 min (in vivo; [8]): 44 ± 9.6 %ID/g
- tissue uptake at 0.5 h (in vivo; [8]): 28.5 ± 3.7 %ID/g
- tissue uptake at 1 h (in vivo; [8]): 26.2 ± 2.6 %ID/g
- tissue uptake at 2 h (in vivo; [8]): 25 ± 3.8 %ID/g
- tissue uptake at 0.5 h (in vivo; [9]): 0.9 ± 0.09 %ID/g
- tissue uptake at 1 h (in vivo; [9]): 0.4 ± 0.06 %ID/g
- tissue uptake at 2 h (in vivo; [9]): 0.3 ± 0.05 %ID/g
- tissue uptake at 0.5 h (in vivo; [10]): 1.1 ± 0.2 %ID/g
- tissue uptake at 1 h (in vivo; [10]): 1 ± 1.4 %ID/g
- tissue uptake at 2 h (in vivo; [10]): 0.5 ± 0.4 %ID/g
- tissue uptake at 10 min (in vivo; 3.8 MBq/0.3 nmol/200 uL, Uptake, Pancreas): 3.2 ± 0.3 %ID/g
- tissue uptake at 10 min (in vivo; [11]): 7.5 ± 2.2 %ID/g
- tissue uptake at 0.5 h (in vivo; [11]): 9.8 ± 2.4 %ID/g
- tissue uptake at 1 h (in vivo; [11]): 9.8 ± 2.3 %ID/g
- tissue uptake at 2 h (in vivo; [11]): 6.8 ± 3.2 %ID/g
- Blood clearance T1/2 [2]: 14 ± 1 min
- Renal clearance T1/2 [2]: 10 ± 3 min
- Tumour clearance T1/2 [2]: 2.2 ± 0.9 h
- Blood clearance T1/2 (H69 tumour-bearing mice): 11 ± 2 min
- Tumour clearance T1/2 (H69 tumour-bearing mice): 2.3 ± 1.1 h
- Tumour uptake T1/2 (H69 tumour-bearing mice): 7 ± 2 min
- Tumour response ([3]; H69 large tumours): partial response
- Mean time to reach a tumour volume of 2000 mm^3 ([3]; H69 large tumours (~200 mm^3)): 110 ± 19 days
- Effect on tumour volume ([3]; H69 large tumours, cumulative injected activity 9.4 ± 0.7 MBq): Shrinkage of tumours was observed
- Median survival ([3]; H69 large tumours): > 90 days
- Mean time to reach a tumour volume of 2000 mm^3 ([3]; H69 small tumours (~50 mm^3)): 102 ± 19 days
- Animals with partial response [3, 12]: eight
- Animals with stable disease [3, 12]: two
- Animals with no tumour regrowth until the end of the study at day 90 ([3]; H69 small tumours, n = 10 treated): two
- Median survival ([3]; H69 small tumours): > 90 days
- Tumour response ([4]; CA20948 large tumours): partial response
- Mean time to reach a tumour volume of 2000 mm^3 ([4]; CA20948 large tumours (~200 mm^3)): 77 ± 25 days
- Median survival ([4]; CA20948 large tumours): 70 days
- Mean time to reach a tumour volume of 2000 mm^3 ([4]; CA20948 small tumours (~50 mm^3)): 76 ± 15 days
- Animals with stable disease till the end of the study ([4]; CA20948 small tumours, after therapy): one
- Animals with no tumour regrowth ([4]; CA20948 small tumours, n = 8 treated): one
- Median survival ([4]; CA20948 small tumours): > 90 days
